Experimental data as given in PMC13410764.

Target: Tr1 protein of Anaplasma phagocytophilum (recombinant, tagless) (Anaplasma phagocytophilum)
Test: SEC; gel filtration on a HiPrep Sephadex 75 16/600 column with Buffer B; apparent molecular weights from a standard curve of elution volumes

Tr1 protein of Anaplasma phagocytophilum (recombinant, tagless) (natural protein)
stoichiometry N: 4
